Measurements reported in the DeepSol protein solubility set.

Assay: soluble on expression in E. coli; label from the status in PepcDB or PDB records

Sequence	soluble on expression in E. coli
MGSDKIHHHHHHMKQKNYHSCTVGQIVAGNFDTTKVFSRYHIDFCCHGNTPFAEACRNRGIDPEAVAHELNELQENTVSNAPDFAGWPIDLLIDYVLKIHHRGIRAKGPQIEALLTKVTEAHSKNHPELLQVQALFRDSLLDLENHLSKEENVLFPYVYEMFQAKEEGLKVAKFHCGTILYPIEVMEDEHNHEGERFEKISSLTNGFTAPEDACASFRLVLQQLKQFEEALHEHIHLENNIIFPRALELEKKEAI	not soluble
MAYELPELPYAYDALEPHIDKETMTIHHTKHHNTYVTNLNKAVEGNTALANKSVEELVADLDSVPENIRTAVRNNGGGHANHKLFWTLLSPNGGGEPTGALAEEINSVFGSFDKFKEQFAAAAAGRFGSGWAWLVVNNGKLEITSTPNQDSPLSEGKTPILGLDVWEHAYYLNYQNRRPDYISAFWNVVNWDEVARLYSERK	soluble
MLKKGNEMKAVIVYASVHHGNTKKIEEAMASVISADVIDVTRKIKPDLSGYDVIGFVSGVYFHTFHEGIKKCIEENMSSKGQKVFLVATCGLGYRDYTKGMKDTLAKKDVLCMGSFQCRGWDTYGIFGKIGGIAKKHPNDRDLKEAQEFVLKTVCKTNNLEHHHHHH	not soluble
MRTNVPDQQSTVQKLLDENSRLIDIIQEYLNQSRADEAIKHQQLLHRNLLHLSNLADPFLLSQLKDDGTAAAALPDPNQQQPQPGASGPPAPHLQQQQPQHSPQQGHPHPQQGLPAAHHRQQMMPPQAAPSPGGPMQPPHGFAPPPMGGGVPPEMMNHQAYQAQMRQQQQQPNGQAPPPVYPPFGQPAPQMSGQRMPYPYPPQGMPGYPGGPPPPPHGYEGYPPPGAQPGYMR	soluble
MGSDKIHHHHHHVAPSIRARSAGRDETEFDFMMTDPLALAKRLIALRARIVATFNAGNWEEVGLLSGQSKIITGHDRLLRSLSWHDEDYEGNVLTVLRRISDRDVRALDVIEEYLNEKFPGEEKTEYVSAKPSERKITFAPNVFQIPDGSVESDLVAVMMPFSPEFKPVYEAMKRACTANSLRSMRVDDMWQDSVIVQDIFSLIFRAQVVVVDFSRKNPNVMYETGIAHTLGKHVVPIAQTIDDVPFDMRHHRTLLYLANGEGLQQLERELAAKLKQFGGGGPPIINLGFSR	not soluble
MTSSNKLHEVDKDQQSAFDITGRYQTISAHPTKEFSKPTLAAGAVLWRHSSTITENPAVEFAVIHRPHYDDWSLAKGKVDPGESLPVTAEREIREETGHHVHLGKLLGKVSYPVGERTKVVYYWIAQVHDEAFEENNEVDELRWLPYTEARELLSYDVDRLVLDKAYKRLALPTTTRVILVRHAKAHQRHNWAGNDSIRPLEKKGQRQADLLGPMLAAYGPTSIHSATPARCQQTAAPLSELTGLEVVVDDRFDDEAWLSRMTVAQKACEELIATPGTHVVVSQGLFIPDAIAWLSAQGRLPLETIEAKKASAWVLSFHEGELTGADYLVSPLGVK	not soluble
MGSDKIHHHHHHMREHDEGLLNGITPDRIRDHIRALEGVRHPLAAPEALERAAGYIRETFGSLGYPVADHLFMDGGREFANIIATHTGGSKSGRRVLVVAHYDTVTTTPGADDNASGVAVLLELATILKCLRFERCLQFVAVTLEENEDEHNPRDLGTRGSRALAAHARREGWEIEGAVVLESVAYAGDAVVQRTPAGIPFTVPATGNFIGVIGNEASRGMVDRFGQAVGSREAGLPWVPLVVPGNGGLLPDSRRSDHAPFWDHGYKAIMLTDTTNFRNPHYHQPSDTLETLNLDFAVQVCRATAALLLDIAKASEP	not soluble
MSLNNLEKASRLIDEENNYYARSARINYYDLVINHAHGATLIDVDGNEYIDLLASASAINVGHTNERVVKAISRQAQKLIHYTPAYFHHVPGIELSKRLAELAPGNSPKMVSFGNSGSDANDAIIKFSRAYTSRQYIVSYMGSYHGSNYGSQSLSGTSLNMTRKIGPMLPGVVHVPYPDLYRRYAGETEHDVAIRYFNAFKAPFESFLPADETACVLVEPIQGDGGIVKAPEEYMQLVYKFCHDNGILFAVDEVNQGLGRTGKMWGIQQYKDIEPDLMSVGKSLASGMPLSAVVGKKDIMQSLDAPAHIFTTSGNPVCAAASLATLNVIRDDHLVEKSAKDGEYAKQRFLEMQRHHPIIGDVRMWGLNGGIELVKDPKTKEAENDAATKVIYYAFAHGVVIITLAGNILRFQPPLVISHKQLDKALQVLDDAFTAVEQNKVEVPKDTGKIGWEGHHHHHH	not soluble
MSINTSGKITSATERADSADFRTIIRNKIPLMDVRAPVEFGKGAFDLSINYPLMNNDERADVGICYKQNGQEAAIKLGNALVSGQSKARRLTQWQTFARENPQGYLYCFRGGLRSQTVQRWLKESGINYPLITGGYKALRQFLLNELEQLALHPLTILAGNTGSGKTPFLAHCANSLDLEGAAGHRGSSFGSFVTPQSNQINFENKLAEQYIRGDFSLEQRLVLEDEGRLIGSVHLPESLRNAMTLAPLVVIEESLEYRLEQIYQEYIIKMTAQYQAAYGVEQGFTAFSEYLEHGLFKVRKRLGTQRYGQLKEIQSTALTQQNKGQPQYHLDWLKPLLSEYYDPMYQYQLGLKSDRVIFRGNNSECLAFLRD	not soluble
PMSEIVRVHASSGTTGKPTVVGYTRRDIAMWSEVVARALNCAGASREDFIQIAYGYGLFTGGLGLHYGSEKLGATVIPISGGNTQKQVQLMADFKTTVLACTPSYALYLAESLEEAGMTTDDISLRVGIFGAEPWTPGMRKEIEIKLGIKAMDIYGLSEVMGPGVACDCEYQAGLHVN	not soluble
MGSDKIHHHHHHMATLKRIWLALNPQEAAAWQALLTTAGLAADRQVDYTVGIFEGETLLATGSLSGNIIKEVAVTPATQHENLLAQVIQALLDRLDDDGVTHSFVYTKPTTVKFFLSLGFKQLAATDAVVLLERGYPNLTDYVASLEKQRRPEKPAAAIVMNANPITRGHAYLIETAAKVNPVVYVFVLSAERSLFTADERLALVRKVAARWPNVVVLPTNDYMVSNTTFPSYFLKERADADVAAVQARLDAALFKQAIAPVLGITRRYVGEEPLSPVTAIYNRELAATFGSAIELIVVPRLMIDGDVVSATRVRAAMAQQDWKTVQQLVYPEVYQEIKERSTHGN	not soluble
SAFPIDLRGQTAFVAGVADSHGYGWAIAKHLASAGARVALGTWPPVLGLFQKSLQSGRLDEDRKLPDGSLIEFAGVYPLDAAFDKPEDVPQDIKDNKRYAGVDGYTIKEVAVKVKQDLGNIDILVHSLANGPEVTKPLLETSRKGYLAASSNSAYSFVSLLQHFGPIMNEGGSAVTLSYLAAERVVPGYGGGMSSAKAALESDTRTLAWEAGQKYGVRVNAISAGPLKSRAASAIGKSGEKSFIDYAIDYSYNNAPLRRDLHSDDVGGAALFLLSPLARAVSGVTLYVDNGLHAMGQAVDSRSMPPLQRATQEIN	soluble
MSSISSSSSNVRMDRRFDWVGPPDNLSKIRKIMLRRVDNESELERQYRLAREELNQWNSDFWAEHNQLFDRQKSDFVERKQQELGRLEHVSANELSEFYRDFLNDRHVAMMAYNKEWYRRNLQLIWPALKVNVVRFFRMARR	not soluble
MGSDKIHHHHHHMRNQSKMPLVERLDAHAKSCPISLHVPGHKSGAIYPDAWQKFLKWDVTEITGMDDLHHPEDVILEAEELLAECYGSKKSYFLVNGTSGGSLAVIMATLKHGEKVLVPRDAHKSILHGIELAGGEPIFLTPATNKEVGVASGVTTELLEETLHNHPDIKLCIFTYPSYYGTTFNLHKCIQIAHDFGAVVFVDEAHGAHFLTSSEFPKSAVELGADVVVQSAHKTLPALTMGSYLHVVNDLPIFEKLPYYLQVFQTSSPSYLIMASLDAARKYAATYTAADVEAFWKMRARWIKWLTKNKFDVILPDDPLKIIVRKTGYTGYELQAIFEESSYFPELADESQVLLILPLIKKGIDFTPISRIHSPVKKEIAKEPYEMSAPFASGLALTYEEMHARATEFVLLDEATTRVSAETISLYPPGIPAIIRGESITEKHIRELKNIRTRHYQGGEKLAENYIRVFR	not soluble
MAHHHHHHSLCKAFCSCYSYHYHHREKMGIKEYYDKLAKSYDKLYKNKYMRIVEREIIQKEIKDGDFVLDIGCGTGEQLKILNNAVGLDISLEMAKIAKNKTNKPVVVANAEFLPFKNKSFDKAISFFGALNHCNLKRALREVNRVLKDDGIFIFTVANIYDIKWIIKNILKGNFKKVKNAMKKRKGTITKVIDGEKIKVKTRFYDFKEVEDALKKEGFEVVYTFGTNITNSPLDKFIYKSFLKNFASYIGFVAKKVKNREG	not soluble
